Values of other authors, collected in US5925739A, “Pharmaceutical formulation for subcutaneous intramuscular or intradermal administration of factor VIII” (Pharmacia & Upjohn AB, priority 1994, dated 1999).

Details: hemophilia B patients, injected into subcutaneous tissue

## human factor IX: coagulation factor IX, molecular mass of about 56 kDa
  transport into the circulation: poorly and very slowly transported into the circulation
